Experimental findings from PMC5522423, “Influence of C-terminal truncation of murine Serum amyloid A on fibril structure” (Scientific Reports, 2017) are described below.

The data set concerns the molecule itself. Put plainly: in vitro fibril formation (negative-stain TEM, with ThT fluorescence, Congo red absorption and ATR-FTIR of the fibrils); 80 µM protein in 50 mM Tris buffer (pH 8.0), 7 days at 37 °C, 300 rpm; self-assembly into amyloid-like fibrils.

B1: full-length murine serum amyloid A 1.1, SAA(1–103) (natural protein, mouse, UniProt P05367 20-122, looked up)
chain: GFFSFIGEAFQGAGDMWRAYTDMKEAGWKDGDKYFHARGNYDAAQRGPGGVWAAEKISDARESFQEFFGRGHEDTMADQEANRHGRSGKDPNYYRPPGLPAKY
notes: Serum amyloid A 1.1 (SAA1.1), mouse, 103 residues; also called murine SAA1.1; mSAA; source: E. coli RV308 (pMal-c2X vector), purified as described previously, lyophilized
Consider B1, for which the binding result is recorded as “binds”.
